The values that follow come from patent publication WO2020171171A1 (dated 2020).

The target in the assay is HLA-DR antigen expressed on human cells (L428, KM-H2, B cells of PBMC, other cancer cell lines, tumour tissue) (human). Description: cell-based or functional assay.

B1: BP1206 chimeric antibody (human Fc chimeric recombinant antibody designed based on the antibody LN-3) (antibody, human IgG1, kappa, L234A L235A, V domains shown)
VH: QVHLKQSGPGLVQPSQSLSITCTVSGFSLTRFGVHWIRQSPGKSLEWLGVTWSGGTTVYNGAFISRLSITKDISKSQVFFKMNSLQVDDTGIYYCARAYYAMDYWGQGTSVTVSS
VL: DVQMTQSPSYLAASPGETITIHCRASESIGKYLAWYQKKPGRSNRLLIYSGSTLQSGIPSRFSGSGSGTDFTLTVSSLEPEDFAMYYCQHHNDYPWTFGGGTKVEIKR
On to B1, for which the “decrease in abundance of B cells (CD19 positive cells) among live PBMC, relative to isotype control (1 μg/ml antibody, 2 h, flow cytometry)” value was approximately 60%.
